Patent US8969060B2, “Modified glucose dehydrogenase” (Ikeda Food Research Co., Ltd., priority 2011, dated 2015)
Positions count from the first letter of the chain named. Names and notes keep the numbering of the source.

B1: G352E: modified GLD: SEQ ID NO: 1 with substitution G352E (protein, listed as Aspergillus terreus)
chain: MLGKLSFLSALSLAVAAPLSNSTSAKYDYIVIGGGTSGLAVANRLSEDPNVNVLILEAGGSVWNNPNVTNVDGYGLAFGSDIDWQYQSVNQPYGGNLSQVLRAGKALGGTSTINGMAYTRAEDVQIDAWETIGNTGWTWKNLFPYYRKSENFTVPTKSQTSLGASYEAGAHGHEGPLDVAFTQIESNNLTTYLNRTFQGMGLPWTEDVNGGKMRGFNLYPSTVNLEEYVREDAARAYYWPYKSRPNLHVLLNTFANRIVWDGEAHDGHITASGVEITSRNGTVRVINAEKEVIVSAGALKSPAILELSGIGNPSVLDKHNIPVKVNLPTVGENLQDQVNSHMDASGNTSISETKAVSYPDVYDVFGDEAESVAKQIRANLKQYAADTAKANGNIMKAADLERLFEVQYDLIFKGRVPIAEVLNYPGSATSVFAEFWALLPFARGSVHIGSSNPAEFPVINPNYFMLDWDAKSYVAVAKYIRRSFESYPLSSIVKESTPGYDVIPRNASEQSWKEWVFDKNYRSNFHPVGTAAMMPREIGGVVDERLNVYGTTNVRVVDASVLPFQVCGHLVSTLYAVAERAADLIKADAGRR
modifications: SIGNAL (1)..(19)
B2: H341Q: modified GLD: SEQ ID NO: 1 with substitution H341Q (protein, listed as Aspergillus terreus)
chain: B1 chain with H341Q, E352G
modifications: SIGNAL (1)..(19)
B3: H341M: modified GLD: SEQ ID NO: 1 with substitution H341M (protein, listed as Aspergillus terreus)
chain: B1 chain with H341M, E352G
modifications: SIGNAL (1)..(19)
B4: H341C: modified GLD: SEQ ID NO: 1 with substitution H341C (protein, listed as Aspergillus terreus)
chain: B1 chain with H341C, E352G
modifications: SIGNAL (1)..(19)
B5: S340G: modified GLD: SEQ ID NO: 1 with substitution S340G (protein, listed as Aspergillus terreus)
chain: B1 chain with S340G, E352G
modifications: SIGNAL (1)..(19)
B6: H341D: modified GLD: SEQ ID NO: 1 with substitution H341D (protein, listed as Aspergillus terreus)
chain: B1 chain with H341D, E352G
modifications: SIGNAL (1)..(19)
B7: H341K: modified GLD: SEQ ID NO: 1 with substitution H341K (protein, listed as Aspergillus terreus)
chain: B1 chain with H341K, E352G
modifications: SIGNAL (1)..(19)
B8: S340V: modified GLD: SEQ ID NO: 1 with substitution S340V (protein, listed as Aspergillus terreus)
chain: B1 chain with S340V, E352G
modifications: SIGNAL (1)..(19)
B9: L250V + S340G + D399N: modified GLD: SEQ ID NO: 1 with substitutions L250V, S340G, D399N (protein, listed as Aspergillus terreus)
chain: B1 chain with L250V, S340G, E352G, D399N
modifications: SIGNAL (1)..(19)
B10: S272T + A298V + A369T: modified GLD: SEQ ID NO: 1 with substitutions S272T, A298V, A369T (protein, listed as Aspergillus terreus)
chain: B1 chain with S272T, A298V, E352G, A369T
modifications: SIGNAL (1)..(19)
B11: H341F: modified GLD: SEQ ID NO: 1 with substitution H341F (protein, listed as Aspergillus terreus)
chain: B1 chain with H341F, E352G
modifications: SIGNAL (1)..(19)
B12: H341L: modified GLD: SEQ ID NO: 1 with substitution H341L (protein, listed as Aspergillus terreus)
chain: B1 chain with H341L, E352G
modifications: SIGNAL (1)..(19)
B13: H341E: modified GLD: SEQ ID NO: 1 with substitution H341E (protein, listed as Aspergillus terreus)
chain: B1 chain with H341E, E352G
modifications: SIGNAL (1)..(19)
B14: H341N: modified GLD: SEQ ID NO: 1 with substitution H341N (protein, listed as Aspergillus terreus)
chain: B1 chain with H341N, E352G
modifications: SIGNAL (1)..(19)
B15: S340W: modified GLD: SEQ ID NO: 1 with substitution S340W (protein, listed as Aspergillus terreus)
chain: B1 chain with S340W, E352G
modifications: SIGNAL (1)..(19)
B16: H341R + G499S: modified GLD: SEQ ID NO: 1 with substitutions H341R, G499S (protein, listed as Aspergillus terreus)
chain: B1 chain with H341R, E352G, G499S
modifications: SIGNAL (1)..(19)
B17: H341A: modified GLD: SEQ ID NO: 1 with substitution H341A (protein, listed as Aspergillus terreus)
chain: B1 chain with H341A, E352G
modifications: SIGNAL (1)..(19)
B18: H341I: modified GLD: SEQ ID NO: 1 with substitution H341I (protein, listed as Aspergillus terreus)
chain: B1 chain with H341I, E352G
modifications: SIGNAL (1)..(19)
B19: V338 + Q382H: modified GLD: SEQ ID NO: 1 with substitutions at V338 and Q382H (protein, listed as Aspergillus terreus)
chain: B1 chain with V338M, E352G, Q382H
modifications: SIGNAL (1)..(19)
B20: S340N: modified GLD: SEQ ID NO: 1 with substitution S340N (protein, listed as Aspergillus terreus)
chain: B1 chain with S340N, E352G
modifications: SIGNAL (1)..(19)
B21: H341G: modified GLD: SEQ ID NO: 1 with substitution H341G (protein, listed as Aspergillus terreus)
chain: B1 chain with H341G, E352G
modifications: SIGNAL (1)..(19)
B22: H341P: modified GLD: SEQ ID NO: 1 with substitution H341P (protein, listed as Aspergillus terreus)
chain: B1 chain with H341P, E352G
modifications: SIGNAL (1)..(19)

Legend:
[1] = Relative enzymatic activity of GLD (DCIP/1-m-PMS, plate reader, yeast culture supernatant) with 1,10-phenanthroline present; format: biochemical; settings: for Relative Activity: random-mutation mutants, sample value with inhibitor at 1 mM / blank value, inhibitor not named in Table 1; for Relative Activity [%] 1,10-Phenanthroline: site-specific mutants, inhibitor final concentration 1 mM
Procedure: (§1) The susceptibility defined in the present specification is evaluated in terms of a relative activity that is determined in a system wherein the inhibitor coexists or not. The relative activity is derived from a relative value (%) of an enzymatic activity (a sample value) obtained with the addition of the inhibitor in the determination of the enzymatic activity described in the present specification as compared with an enzymatic activity (a blank value) as “100%” obtained without the addition of the inhibitor in the same determination. Thus, the higher the relative activity is, the less the susceptibility to the inhibitor is (or the more the susceptibility to the inhibitor is reduced), vice versa.
(§2) The enzymatic activity is determined in the following manner in Examples 3 and 6 wherein a plate reader (Japan Molecular Device Corporation, SpectraMax Plus384) is used. Thus, culture supernatant that had been diluted in advance with an appropriate magnification is added to a 96-well microplate with an amount of 100 μl per well. A reagent for the determination of the enzymatic activity comprising phosphate buffer (pH 7.0), 1.0 M D-glucose, 3 mM DCIP, 3 mM 1-m-PMS and methanol with a volume ratio of 0.1:1:0.14:0.2:0.06 is added to the 96-well microplate with an amount of 100 μl per well, and a change in the absorbance of DCIP at 600 nm (ΔABS/min) is then determined. The enzymatic activity can be calculated by conversion in proportion to a change in the absorbance of an enzyme solution for which the enzymatic activity has already been known by the above-mentioned activity determination procedure using the spectrophotometer.
(§3) In the following examples, a value of the enzymatic activity determined by the spectrometer or plate reader using the above reagent composition is considered as a blank value. On the other hand, a sample value is determined using a methanol solution comprising the inhibitor such as 1,10-phenanthroline or proflavin hydrochloride at a final concentration of 1 mM instead of the methanol. Enzymatic activity (unit/mL)=(−ΔABS/16.3)×3.0/0.05×(Dilution ratio of enzyme) [Equation 1]
Into each well of a 96-well microplate (manufactured by Nunc, Inc.), a YPD medium containing 125 μL of 1.0% (w/v) yeast extract (manufactured by BD), 2.0% (w/v) tryptone (manufactured by BD), 2.0% (w/v) glucose (manufactured by Wako Pure Chemical Industries, Ltd.) was dispensed, and the transformant colonies obtained in Example 2 were inoculated thereinto one by one.
After shaking culture at 30° C. and 1,000 rpm for 24 hours, the culture mixture was centrifuged and the supernatant was collected.
According to the above-mentioned method for the determination of enzymatic activity, a blank value and a sample value were determined using a plate reader, and the relative activity (%) was obtained by dividing the sample value by the blank value.

[2] = Relative enzymatic activity of GLD (DCIP/1-m-PMS, plate reader, yeast culture supernatant) with proflavin hydrochloride present; format: biochemical; settings: site-specific mutants, inhibitor final concentration 1 mM
Procedure: as §1, §2, §3

Molecule	Relative Activity [1]	Relative Activity [%] 1,10-Phenanthroline [1]	Relative Activity [%] Proflavin hydrochloride [2]
B1	70.4%	91.7%	36.3%
B2		97.5%	68.1%
B3		95.4%	71.4%
B4		95.4%	67.7%
B5		54.6%	49.5%
B6		90.0%	64.5%
B7		99.2%	61.3%
B8		84.2%	54.9%
B9	43.4%		
B10	68.6%		
B11		97.1%	67.5%
B12	69.7%	92.2%	66.9%
B13		88.4%	25.2%
B14		93.3%	81.5%
B15		97.7%	75.7%
B16	71.9%		
B17		95.1%	75.8%
B18		97.4%	64.4%
B19	60.0%		
B20		82.0%	49.9%
B21		93.8%	76.9%
B22		88.3%	43.2%
